# Experimental data published in patent US20250289896A1 (ANALYTICAL BIOSCIENCES SHANGHAI, published 2025).
# Residue numbers refer to the chain shown, from its start. In names and notes the source's numbering stands.
# T1: mCCR8 (UniProt P56484 1-353, limits assumed)
# T1 construct: whole, on cells; also called 293T-mCCR8
# T1 sequence (looked up): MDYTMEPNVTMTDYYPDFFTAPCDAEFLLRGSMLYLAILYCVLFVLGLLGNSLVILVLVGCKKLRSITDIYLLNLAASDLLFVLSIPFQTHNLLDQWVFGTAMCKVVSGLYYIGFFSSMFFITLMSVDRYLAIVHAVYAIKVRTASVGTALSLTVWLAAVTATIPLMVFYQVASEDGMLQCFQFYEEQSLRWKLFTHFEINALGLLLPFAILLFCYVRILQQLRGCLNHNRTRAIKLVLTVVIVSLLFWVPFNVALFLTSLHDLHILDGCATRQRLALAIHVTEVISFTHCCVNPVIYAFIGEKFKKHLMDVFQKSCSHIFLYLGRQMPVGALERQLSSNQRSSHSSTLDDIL
# B1: ChH2-AF (antibody, human IgG1, kappa)
# heavy: not shown
# light: DIVMTQAAPSVPVTPGESVSISCRSSQSLLHSNGNTYLYWFLQRPGQSPQLLIYRMSNLASGVPDRFSGSGSGTAFTLRISRVEAEDVGVYYCMQHLEYPFTFGIGTKLELKRTVAAPSVFIFPPSDEQLKSGTASVVCLLNNFYPREAKVQWKVDNALQSGNSQESVTEQDSKDSTYSLSSTLTLSKADYEKHKVYACEVTHQGLSSPVTKSFNRGEC
# B2: ChB1-AF (antibody, human IgG1, kappa)
# heavy: not shown
# light: B1 light with P12V, Q27K, L97V, I105G, L109V, E110Q, L111I
# B3: ABC080.chH2.SDIE (antibody)
# heavy: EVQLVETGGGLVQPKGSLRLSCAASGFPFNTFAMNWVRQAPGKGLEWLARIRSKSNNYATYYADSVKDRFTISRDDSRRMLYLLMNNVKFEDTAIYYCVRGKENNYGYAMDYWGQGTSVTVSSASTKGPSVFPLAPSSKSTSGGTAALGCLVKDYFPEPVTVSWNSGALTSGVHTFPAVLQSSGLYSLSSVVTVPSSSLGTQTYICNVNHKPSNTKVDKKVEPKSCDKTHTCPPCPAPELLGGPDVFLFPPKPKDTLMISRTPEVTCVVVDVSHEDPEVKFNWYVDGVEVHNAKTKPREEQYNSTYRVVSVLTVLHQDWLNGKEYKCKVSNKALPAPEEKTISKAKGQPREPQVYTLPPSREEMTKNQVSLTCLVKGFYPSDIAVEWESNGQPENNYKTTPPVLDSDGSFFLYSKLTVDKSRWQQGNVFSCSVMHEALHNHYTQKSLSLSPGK
# light: B1 light
# notes: Chimeric antibody with SDIE Fc; ABC025.H2G.SDIE is its humanized clone
# B4: ABC025-H2G.SDIE (antibody, human IgG1, kappa)
# heavy: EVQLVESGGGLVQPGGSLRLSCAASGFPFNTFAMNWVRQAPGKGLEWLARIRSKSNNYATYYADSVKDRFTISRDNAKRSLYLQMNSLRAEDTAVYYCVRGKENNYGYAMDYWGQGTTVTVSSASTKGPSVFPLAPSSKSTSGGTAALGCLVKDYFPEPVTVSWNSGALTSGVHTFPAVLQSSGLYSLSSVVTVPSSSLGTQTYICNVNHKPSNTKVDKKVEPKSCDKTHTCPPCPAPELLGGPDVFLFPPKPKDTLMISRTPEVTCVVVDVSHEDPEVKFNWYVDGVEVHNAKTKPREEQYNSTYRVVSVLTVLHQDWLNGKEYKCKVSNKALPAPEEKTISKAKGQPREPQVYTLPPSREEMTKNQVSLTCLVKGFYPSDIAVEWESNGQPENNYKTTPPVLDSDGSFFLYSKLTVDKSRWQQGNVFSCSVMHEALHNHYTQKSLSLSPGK
# light: DIVMTQSPLSLPVTPGEPASISCRSSQSLLHSNANTYLYWFLQKPGQSPQLLIYRMSNLASGVPDRFSGSGSGTDFTLKISRVEAEDVGVYYCMQHLEYPFTFGQGTKLEIKRTVAAPSVFIFPPSDEQLKSGTASVVCLLNNFYPREAKVQWKVDNALQSGNSQESVTEQDSKDSTYSLSSTLTLSKADYEKHKVYACEVTHQGLSSPVTKSFNRGEC
# notes: Humanized clone of ABC080.chH2.SDIE; Fc with SDIE mutation
# B5: ABC138-H2.hu13.IgG1.SDIE (antibody, V domains shown)
# VH: EVQLVESGGGLVQPGGSLRLSCAASGFPFNTFAMNWVRQAPGKGLEWLARIRSKSNNYATYYADSVKDRFTISRDNAKRSLYLQMNSLRAEDTAVYYCVRGKENNYGYAMDYWGQGTTVTVSS
# VL: DIVMTQSPLSLPVTPGEPASISCRSSKSLLHSNANTYLYWFLQKPGQSPQLLIYRMSNLASGVPDRFSGSGSGTDFTLKISRVEAEDVGVYYCMQHVEYPFTFGGGTKLEIKR
# notes: Developed by mutagenesis in the light chain CDRs of ABC025.H2G.SDIE; IgG1 with SDIE mutations; also called ABC0138.H2.Hu13.SDIE
# B6: ABC1183 (antibody, human IgG1, kappa, V domains shown)
# VH: EVQLLESGGGLVQPGGSLRLSCAASGFSFSDYYMAWVRQAPGKGLEWVASISNAGTKTYYGDSVKGRFTISRDDSKNTLYLQMNSLRAEDTAVYYCVRQDLYYGRNQYWYFDFWGRGTLVTVSS
# VL: DIQMTQSPSSLSASVGDRVTITCKASQSVGSNVDWYQQKPGKSPKLLIYKTSSRFTGVPSRFSGSGSRTDFTLTISSLQPEDFATYYCVQSNSYPYTFGAGTKLELKR
# notes: Humanized format of ABC822
# B7: ABC822 (antibody, human IgG1, kappa, V domains shown)
# VH: EVQLVESGGGLMQPGRSLKLSCAASGFSFSDYYMAWVRQAPKKGLEWVASISNAGTKTYYGDSVKGRFTISRDDAKSTLYLQMNSLRSEDTATYYCVRQDLYYGRNQYWYFDFWGPGTMVTVSS
# VL: IVMTQSPTSMSKSVGDRVTMNCKASQSVGSNVDWYQQKTGQSPKLLIYKTSSRFTGVPDRFTGSGSRTDFTFTISSMQAEDLALYYCVQSNSYPYTFGAGTKLELKR
# B8: ABC078.AF (antibody, human IgG1, kappa, V domains shown)
# VH: QVQLVQSGAEVKKPGASVKVSCKASGYTFTDSEMHWVRQATGQGLEWMGAIQPETGGTAYNQKFKARVTMTRDTSISTAYMELSSLRSEDTAVYYCARRRRNFDYWGQGTLVTVSS
# VL: DIVMTQTPLSLSVTPGQPASISCRSSQSLFHSSGNTYLHWYLQKPGQPPQLLIYKVSNRFSGVPDRFSGSGSGTDFTLKISRVEAEDVGVYYCSQSTHVPFTFGQGTKLEIKR
# notes: Prior art antibody (PCT/US2021/023430); also called BMS-986340
# B9: ABC078 (antibody, V domains shown)
# VH: B8 VH
# VL: B8 VL
# B10: ABC048-B1.hu11.IgG1.SDIE (antibody, V domains shown)
# VH: EVQLVESGGGLVQPGGSLKLSCAASGFTFNTYAMNWVRQASGKGLEWVARIRSKSNNYATYYADSVKDRFTISRDDSKNTLYLQMNSLKTEDTAVYYCVREVRRDYALDQWGQGTMVTVSS
# VL: B5 VL with A34G
# notes: IgG1 with SDIE mutations, by its name; also called ABC048-B1.hull.IgG1.SDIE
# B11: ABC084.AF (antibody, human IgG1, kappa, V domains shown)
# VH: EVQLLESGGGLVQPGGSLRLSCAASGFTFSSYGMHWVRQAPGKGLEWVSAINWNGGSTGYADSVKGRFTISRDNSKNTLYLQMNSLRAEDTAVYYCARGHHSGYDGRFFDYWGQGTLVTVSS
# VL: QSVLTQPPSVSGAPGQRVTISCTGSSSNIGAGYNVHWYQQLPGTAPKLLIYTNNRRPSGVPDRFSGSKSGTSASLAISGLRSEDEADYYCAAWDASLSGWVFGGGTKLTVLR
# notes: Prior art antibody (PCT/EP2021/067504)
# Molecular target: T2, Human CCR8 (C-C chemokine receptor type 8) (human, UniProt P51685 1-355)
# Experiment: cell-based or functional assay
# T2 sequence (P51685 whole entry): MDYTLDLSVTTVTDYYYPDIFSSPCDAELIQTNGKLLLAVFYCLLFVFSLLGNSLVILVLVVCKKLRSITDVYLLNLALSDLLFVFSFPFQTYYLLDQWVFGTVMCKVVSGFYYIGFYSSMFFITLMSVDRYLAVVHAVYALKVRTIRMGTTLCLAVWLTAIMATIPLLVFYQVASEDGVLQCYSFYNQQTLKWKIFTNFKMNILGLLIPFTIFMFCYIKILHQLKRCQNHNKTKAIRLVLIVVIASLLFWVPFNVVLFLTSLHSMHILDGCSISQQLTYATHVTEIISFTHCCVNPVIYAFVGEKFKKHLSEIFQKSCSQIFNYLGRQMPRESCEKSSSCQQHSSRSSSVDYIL
row,Binder,"ADCC killing of TALL-1 cells, Median EC50 (pM)"
1,B1,2.55 pM
2,B2,9.8 pM

# Molecular target: T2, Human CCR8 (C-C chemokine receptor type …)
# Experiment: flow cytometry, human PBMC-derived activated Tregs
# Method: (§1) 2.3 Cell-based binding assays for human PBMC-derived activated Tregs Binding specificity of the anti-CCR8 antibodies was tested by FACS using human PBMC-derived activated Tregs. In summary, Tregs were expanded and activated following the manufacturer's protocol (130-095-345, Miltenyi). Briefly, cryopreserved 7-day expanded human PBMC-derived Tregs (SailyBio) were thawed and rested overnight. They were then restimulated with CD3/CD28 MACSiBeads in the presence of rhIL-2 for 24 hours. […] Afterwards, the activated Tregs were plated at 20K/well in 96-well plates, spun down and the supernatant was removed. Cell pellets were then resuspended and incubated with 100 μl of various concentrations of mAbs or a human lgG1 isotype control antibody (biolegend #403501) at 37° C. for 30 min. The final concentrations of antibodies were indicated on x-axis in each figure. The cells were washed three times with FACS buffer (PBS containing 0.5 mg/ml BSA and 1 mM EDTA). PE-labeled goat-anti-human IgG (Invitrogen) diluted in FACS buffer was added to cell pellets as secondary antibodies at a concentration of 3 μg/ml, and the samples were incubated at 4° C. for 30 min. Samples were washed three times with FACS buffer and analyzed using a Cytek Aurora cytometer. Data were analyzed with GraphPad Prism 8.0 software to determine EC50 values.
# Especially, FIG. 6 and Table 6 show the titration of anti-CCR8 mAbs ABC138-H2.hu13.IgG1.SDIE, ABC025-H2G.SDIE and ABC080.chH2.SDIE to human PBMC-derived activated Treg cells. ABC138-H2.hu13.IgG1.SDIE was developed by mutagenesis in the light chain CDRs of ABC025.H2G.SDIE, which is the humanized clone of ABC080.chH2.SDIE.
row,Binder,EC50
1,B3,0.38 nM
2,B4,0.38 nM
3,B5,0.105 nM

# Molecular target: T2, Human CCR8 (C-C chemokine receptor type …)
# Experiment: flow cytometry, Hut78 cells (endogenous human CCR8)
# Method: (§2) Binding specificity of the anti-CCR8 antibodies (mAbs) was tested by FACS using several cell lines. […] The binding titration of the anti-CCR8 antibodies to CCR8 transfectants was performed by serial dilution of antibodies. The diluted antibody (50 μl) in flow cytometry buffer (PBS, 0.5% BSA, 1 mM EDTA) was incubated with cells (50 μl) at a concentration of 2 million cells/ml on ice for 30 min. After two washes with flow cytometry buffer, bound antibody was detected with Alexa647-labeled F(ab′)2 fragment goat anti-human IgG (Jackson ImmunoResearch #709-606-149) (1:500 dilution) for 20 minutes on ice. The fluorescence was measured on a Cytek Aurora cytometer, after two washes with flow cytometry buffer. The data were analyzed with GraphPad Prism 8.0 software to determine EC50 values.
row,Binder,EC50
1,B6,4.12 nM
2,B7,2.92 nM

# Molecular target: T2, Human CCR8 (C-C chemokine receptor type …)
# Experiment: cell-based or functional assay
# Remark: another data set of the same source
row,Binder,"ADCC killing of Jurkat-hCCR8 cells, IC50 (pM)"
1,B8,2.79 pM
2,B5,2.09 pM
3,B6,1.8 pM
4,B7,9.68 pM

# Molecular target: T3, cynomolgus macaque CCR8 (cynomolgus macaque, UniProt G7NYJ2 1-355)
# Experiment: cell-based or functional assay
# T3 sequence (G7NYJ2 entry or part of it): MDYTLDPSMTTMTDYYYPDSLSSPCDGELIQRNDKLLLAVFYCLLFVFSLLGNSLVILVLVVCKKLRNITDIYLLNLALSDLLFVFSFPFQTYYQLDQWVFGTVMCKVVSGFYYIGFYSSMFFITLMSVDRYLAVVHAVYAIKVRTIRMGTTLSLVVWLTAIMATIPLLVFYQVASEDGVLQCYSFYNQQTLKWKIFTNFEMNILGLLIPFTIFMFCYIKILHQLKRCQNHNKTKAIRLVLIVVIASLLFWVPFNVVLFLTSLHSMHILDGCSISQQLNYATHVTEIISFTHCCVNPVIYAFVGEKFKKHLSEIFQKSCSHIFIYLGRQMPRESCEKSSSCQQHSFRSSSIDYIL
row,Binder,"ADCC killing of Jurkat-cynoCCR8 cells, IC50 (pM)"
1,B8,346 pM
2,B5,62.9 pM
3,B6,6.15 pM
4,B7,7.19 pM

# Molecular target: T3, cynomolgus macaque CCR8
# Experiment: flow cytometry, 293T cells overexpressing cynomolgus CCR8
# Method: as §2
Binder,binding result,EC50
B9,no binding,–
B5,no binding,–
B7,–,0.0938 nM

# Molecular target: T2, Human CCR8 (C-C chemokine receptor type …)
# Experiment: flow cytometry, Hut78 cells (endogenous human CCR8)
# Remark: another data set of the same source
# Method: as §2
row,Binder,EC50
1,B9,0.648 nM
2,B5,0.102 nM
3,B7,3.16 nM

# Molecular target: T2, Human CCR8 (C-C chemokine receptor type …)
# Experiment: flow cytometry, 293T cells overexpressing human CCR8
# Method: as §2
row,Binder,EC50
1,B9,0.0282 nM
2,B3,0.135 nM
3,B5,0.0237 nM
4,B7,0.0684 nM

# Molecular target: T3, cynomolgus macaque CCR8
# Experiment: flow cytometry, 293T cells overexpressing cynomolgus CCR8
# Remark: another data set of the same source
# Method: as §2
row,Binder,EC50
1,B6,0.445 nM
2,B7,0.464 nM

# Molecular target: T2, Human CCR8 (C-C chemokine receptor type …)
# Experiment: flow cytometry, 293T cells overexpressing human CCR8
# Remark: another data set of the same source
# Method: as §2
row,Binder,EC50
1,B6,0.373 nM
2,B7,0.269 nM

# Molecular target: T1, mCCR8
# Experiment: flow cytometry, 293T cells with mCCR8
# Method: as §2
row,Binder,binding result
1,B9,no binding
2,B5,no binding
3,B6,no binding
4,B7,no binding

# Molecular target: T2, Human CCR8 (C-C chemokine receptor type …)
# Experiment: flow cytometry, human PBMC-derived activated Tregs
# Remark: another data set of the same source
# Method: as §1
row,Binder,EC50
1,B10,0.521 nM
2,B8,0.729 nM
3,B4,1.78 nM
4,B5,0.579 nM
5,B11,33.8 nM

# Molecular target: T2, Human CCR8 (C-C chemokine receptor type …)
# Experiment: cell-based or functional assay
# Remark: another data set of the same source
row,Binder,"ADCC killing of Hut78 cells, IC50 (pM)"
1,B8,0.637 pM
2,B5,0.652 pM
3,B6,7.95 pM
4,B7,6.31 pM
